For one substance, bead uptake in the LR73 phagocytosis assay (GFP positive cells with engulfed particles) results are on record in patent US20030028904A1.

In the experiment the target is His-tagged Dock180 (UniProt Q14185). The experiment can be described thus: cell-based or functional assay.

Chain of ELMO1-GFP (Q8BPU7 whole entry): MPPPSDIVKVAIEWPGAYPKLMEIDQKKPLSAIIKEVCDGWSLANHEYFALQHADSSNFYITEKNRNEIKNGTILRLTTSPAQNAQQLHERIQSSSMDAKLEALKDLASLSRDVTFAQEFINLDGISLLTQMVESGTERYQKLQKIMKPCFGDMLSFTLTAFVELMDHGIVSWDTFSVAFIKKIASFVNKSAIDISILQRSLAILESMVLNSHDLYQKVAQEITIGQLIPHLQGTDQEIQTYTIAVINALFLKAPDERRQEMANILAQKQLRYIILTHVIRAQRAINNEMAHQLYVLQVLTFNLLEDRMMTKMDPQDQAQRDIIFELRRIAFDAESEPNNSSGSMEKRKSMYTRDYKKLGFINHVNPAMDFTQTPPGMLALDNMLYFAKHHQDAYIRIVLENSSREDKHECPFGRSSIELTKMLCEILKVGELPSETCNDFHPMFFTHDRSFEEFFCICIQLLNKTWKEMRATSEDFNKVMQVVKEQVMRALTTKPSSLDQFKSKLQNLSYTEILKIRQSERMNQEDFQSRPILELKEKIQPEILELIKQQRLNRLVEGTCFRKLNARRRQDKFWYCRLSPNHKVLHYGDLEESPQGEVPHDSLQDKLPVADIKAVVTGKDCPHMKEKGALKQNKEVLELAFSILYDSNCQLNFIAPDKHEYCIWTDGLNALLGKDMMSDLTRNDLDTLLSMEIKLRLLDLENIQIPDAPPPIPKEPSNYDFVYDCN

The substance ELMO1-GFP (from UniProt Q8BPU7 1-727) returned a bead uptake in the LR73 phagocytosis assay (GFP positive cells with engulfed particles) of 2 fold.
